This is an account of results in patent US9670514B2, “Method for producing polysaccharide” (SANYO CHEMICAL INDUSTRIES, LTD., priority 2011, dated 2017).

What all share (format): biochemical
What all share (conditions): 30° C., pH 7.0

A short description of data set [1]: Specific activity of hyaluronan synthase aqueous solution (14C-glucuronic acid uptake). On the procedure: Reaction solution (1) was prepared by adding 10 μL of hyaluronan synthase aqueous solution (B-1) obtained in Preparation 1 to 1 mL of aqueous solution S (50 mM phosphate buffer (pH of 7.0) containing 1 mM uridine diphosphate-glucuronic acid (labeled radioactive radioactivity of 300 mCi/mmol), 1 mM uridine diphosphate-N-acetylglucosamine, 100 mM sodium chloride, 10 mM magnesium chloride, 10 mM dodecylmaltoside, and 5 mM oleic acid). Four such reaction solutions (1) were prepared and allowed to react at 30° C. for 5 minutes, 10 minutes, 15 minutes, and 20 minutes, respectively. Hyaluronan was separated from the unreacted substrate by paper chromatography (developing solvent containing 1 M ammonium acetate (pH of 5.5) and ethanol at a 7:13 ratio, hereinafter the same) using filter paper (Whatman No. 3 MM, hereinafter the same), and then the origin was cut out and immersed in a liquid scintillation cocktail. The radioactive isotope was then measured using a liquid scintillation counter. The amount of hyaluronan synthesis was calculated from the amount of uptake of ^14C-labeled glucuronic acid. The results were 1.6 mg after 5 minutes, 2.9 mg after 10 minutes, 4.2 mg after 15 minutes, and 5.5 mg after 20 minutes. The specific activity of hyaluronan synthase aqueous solution (B-1) was calculated from the relationship between the amount of hyaluronan synthesis and the reaction time. […]

A short description of data set [2]: Specific activity of chondroitin synthase aqueous solution. Here is the method: Reaction solution (11) was prepared by adding 10 μL of chondroitin synthase aqueous solution (B-2) obtained in Preparation 11 to 1 mL of aqueous solution T (50 mM phosphate buffer (pH of 7.0) containing 1 mM uridine diphosphate-glucuronic acid (^14C-labeled radioactive isotope-containing uridine diphosphate-glucuronic acid; radioactivity of 300 mCi/mmol), 1 mM uridine diphosphate-N-acetylgalactosamine, 100 mM sodium chloride, 10 mM magnesium chloride, 10 mM dodecylmaltoside, and 5 mM oleic acid). Three such reaction solutions (11) were prepared and allowed to react at 30° C. for 5 minutes, 10 minutes, and 15 minutes, respectively. Chondroitin was separated from the unreacted substrate by paper chromatography using filter paper. Subsequently, the origin was cut out and immersed in a liquid scintillation cocktail, and the radioactive isotope was then measured using a liquid scintillation counter. The yield of chondroitin was calculated from the amount of uptake of ^14C-labeled glucuronic acid. The results were 1.7 μg after 5 minutes, 3.1 μg after 10 minutes, and 4.4 μg after 15 minutes. The specific activity of chondroitin synthase aqueous solution (B-2) was calculated from the relationship between the yield of chondroitin and the reaction time. The result was 0.15 U/mL.

The nature of data set [3]: Specific activity of starch synthase aqueous solution. On the procedure:
Reaction solution (13) was prepared by adding 10 μL of starch synthase aqueous solution (B-4) obtained in Preparation 13 to 1 mL of aqueous solution V (50 mM phosphate buffer (pH of 7.0) containing 100 mM uridine diphosphate-α-glucose (^14C-labeled radioactive isotope-containing uridine diphosphate-α-glucose; radioactivity of 300 mCi/mmol), 100 mM sodium chloride, 10 mM magnesium chloride, and 5 mM oleic acid). Four such solutions (13) were prepared and allowed to react at 30° C. for 5 minutes, 10 minutes, 15 minutes, and 20 minutes, respectively. Starch was separated from the unreacted substrate by paper chromatography using filter paper, and then the origin was cut out and immersed in a liquid scintillation cocktail. The radioactive isotope was then measured using a liquid scintillation counter. The yield of starch was calculated from the amount of uptake of ^14C-labeled glucose. The results were 1.3 mg after 5 minutes, 2.5 mg after 10 minutes, 3.8 mg after 15 minutes, and 5.2 mg after 20 minutes. The specific activity of starch synthase aqueous solution (B-4) was calculated from the relationship between the yield of starch and the reaction time. The result was 0.15 U/μL.

Data set [4] in a line: Activity of uridylyltransferase (G-1) to produce uridine diphosphate-N-acetylglucosamine. Here is the method:
(§1) Reaction solution (10-1) was prepared by adding 10 μL of uridine triphosphate-monosaccharide-1-phosphate uridylyltransferase aqueous solution (G-1) obtained in Preparation 10 to 1 mL of aqueous solution (50 mM phosphate buffer (pH of 7.0) containing 100 mM sodium chloride, 10 mM magnesium chloride, 10 mM uridine triphosphate, and 10 mM N-acetylglucosamine-1-phosphate). Three such reaction solutions (10-1) were prepared and allowed to react at 30° C. for 5 minutes, 10 minutes, and 15 minutes, respectively. As for the quantity of the produced uridine diphosphate-N-acetylglucosamine, the product was detected with a UV light (260 nm) in HPLC. The activity of uridine triphosphate-monosaccharide-1-phosphate uridylyltransferase to produce uridine diphosphate-N-acetylglucosamine was determined from the amount of uridine diphosphate-N-acetylglucosamine production. The result was 0.1 U/mL.

Data set [5] is described as follows: Activity of uridylyltransferase (G-1) to produce uridine diphosphate-glucuronic acid. Here is the method:
as §1
The activity of uridine triphosphate-monosaccharide-1-phosphate uridylyltransferase to produce uridine diphosphate-glucuronic acid was determined in a similar manner as described above, except that an aqueous solution containing “10 mM glucuronic acid 1-phosphate” was used in place of “10 mM N-acetylglucosamine-1-phosphate” and “uridine diphosphate-glucuronic acid” was quantitated in place of “uridine diphosphate-N-acetylglucosamine”. The result was 5 U/μL.

B1: hyaluronan synthase aqueous solution (B-1): FLAG-tagged hyaluronan synthase, SEQ ID NO: 1, from Streptococcus equisimilis, expressed in E. coli (protein)
chain: MPIFKKTLIVLSFIFLISILIYLNMYLFGTSTVGIYGVILITYLVIKLGLSFLYEPFKGNPHDYKVAAVIPSYNEDAESLLETLKSVLAQTYPLSEIYIVDDGSSNTDAIQLIEEYVNREVDICRNVIVHRSLVNKGKRHAQAWAFERSDADVFLTVDSDTYIYPNALEELLKSFNDETVYAATGHLNARNRQTNLLTRLTDIRYDNAFGVERAAQSLTGNILVCSGPLSIYRREVIIPNLERYKNQTFLGLPVSIGDDRCLTNYAIDLGRTVYQSTARCDTDVPFQLKSYLKQQNRWNKSFFRESIISVKKILSNPIVALWTIFEVVMFMMLIVAIGNLLFNQAIQLDLIKLFAFLSIIFIVALCRNVHYMVKHPASFLLSPLYGILHLFVLQPLKLYSLCTIKNTEWGTRKKVTIFK
modifications: FLAG tag; aqueous solution; STREPTOCOCCUS
Take B1: in data set [1], the specific activity is 0.15 U/μL.

B2: chondroitin synthase aqueous solution (B-2): chondroitin synthase, SEQ ID NO: 11, derived from Pasteurella multocida (protein, listed as Pasteurella multocida)
chain: MNTLSQAIKAYNSNDYELALKLFEKSAETYGRKIVEFQIIKCKEKLSTNSYVSEDKKNSVCDSSLDIATQLLLSNVKKLTLSESEKNSLKNKWKSITGKKSENAEIRKVELVPKDFPKDLVLAPLPDHVNDFTWYKNRKKSLGIKPVNKNIGLSIIIPTFNRSRILDITLACLVNQKTNYPFEVVVADDGSKENLLTIVQKYEQKLDIKYVRQKDYGYQLCAVRNLGLRTAKYDFVSILDCDMAPQQLWVHSYLTELLEDNDIVLIGPRKYVDTHNITAEQFLNDPYLIESLPETATNNNPSITSKGNISLDWRLEHFKKTDNLRLCDSPFRYFSCGNVAFSKEWLNKVGWFDEEFNHWGGEDVEFGYRLFAKGCFFRVIDGGMAYHQEPPGKENETDREAGKSITLKIVKEKVPYIYRKLLPIEDSHIHRIPLVSIYIPAYNCANYIQRCVDSALNQTVVDLEVCICNDGSTDNTLEVINKLYGNNPRVRIMSKPNGGIASASNAAVSFAKGYYIGQLDSDDYLEPDAVELCLKEFLKDKTLACVYTTNRNVNPDGSLIANGYNWPEFSREKLTTAMIAHHFRMFTIRAWHLTDGFNENIENAVDYDMFLKLSEVGKFKHLNKICYNRVLHGDNTSIKKLGIQKKNHFVVVNQSLNRQGINYYNYDKFDDLDESRKYIFNKTAEYQEEMDILKDLKLIQNKDAKIAVSIFYPNTLNGLVKKLNNIIEYNKNIFVIILHVDKNHLTPDIKKEILAFYHKHQVNILLNNDISYYTSNRLIKTEAHLSNINKLSQLNLNCEYIIFDNHDSLFVKNDSYAYMKKYDVGMNFSALTHDWIEKINAHPPFKKLIKTYFNDNDLRSMNVKGASQGMFMKYALPHELLTIIKEVITSCQSIDSVPEYNTEDIWFQFALLILEKKTGHVFNKTSTLTYMPWERKLQWTNEQIQSAKKGENIPVNKFIINSITL
modifications: aqueous solution
In turn, B2 returned a specific activity in data set [2] of 0.15 U/mL.

B3: starch synthase aqueous solution (B-4): starch synthase, SEQ ID NO: 13, derived from Saccharomyces cerevisiae (protein, listed as Saccharomyces cerevisiae)
chain: MSRDLQNHLLFETATEVANRVGGIYSVLKSKAPITVAQYKDHYHLIGPLNKATYQNEVDILDWKKPEAFSDEMRPVQHALQTMESRGVHFVYGRWLIEGAPKVILFDLDSVRGYSNEWKGDLWSLVGIPSPENDFETNDAILLGYTVAWFLGEVAHLDSQHAIVAHFHEWLAGVALPLCRKRRIDVVTIFTTHATLLGRYLCASGSFDFYNCLESVDVDHEAGRFGIYHRYCIERAAAHSADVFTTVSQITAFEAEHLLKRKPDGILPNGLNVIKFQAFHEFQNLHALKKEKINDFVRGHFHGCFDFDLDNTLYFFIAGRYEYKNKGADMFIEALARLNYRLKVSGSKKTVVAFIVMPAKNNSFTVEALKGQAEVRALENTVHEVTTSIGKRIFDHAIRYPHNGLTTELPTDLGELLKSSDKVMLKRRILALRRPEGQLPPIVTHNMVDDANDLILNKIRQVQLFNSPSDRVKMIFHPEFLNANNPILGLDYDEFVRGCHLGVFPSYYEPWGYTPAECTVMGVPSITTNVSGFGAYMEDLIETNQAKDYGIYIVDRRFKAPDESVEQLVDYMEEFVKKTRRQRINQRNRTERLSDLLDWKRMGLEYVKARQLALRRGYPDQFRELVGEELNDSNMDALAGGKKLKVARPLSVPGSPRDLRSNSTVYMTPGDLGTLQEVNNADDYFSLGVNPAADDDDDGPYADDS
In data set [3], B3 had a specific activity of 0.15 U/μL.

B4: uridine triphosphate-monosaccharide-1-phosphate uridylyltransferase aqueous solution (G-1): uridylyltransferase, SEQ ID NO: 10, derived from Arabidopsis (protein)
chain: MASTVDSNFFSSVPALHSNLGLLSPDQIELAKILLENGQSHLFQQWPELGVDDKEKLAFFDQIARLNSSYPGGLAAYIKTAKELLADSKVGKNPYDGFSPSVPSGENLTFGTDNFIEMEKRGVVEARNAAFVLVAGGLGERLGYNGIKVALPRETTTGTCFLQHYIESILALQEASNKIDSDGSERDIPFIIMTSDDTHSRTLDLLELNSYFGMKPTQVHLLKQEKVACLDDNDARLALDPHNKYSIQTKPHGHGDVHSLLYSSGLLHKWLEAGLKWVLFFQDTNGLLFNAIPASLGVSATKQYHVNSLAVPRKAKEAIGGISKLTHVDGRSMVINVEYNQLDPLLRASGFPDGDVNCETGFSPFPGNINQLILELGPYKDELQKTGGAIKEFVNPKYKDSTKTAFKSSTRLECMMQDYPKTLPPTARVGFTVMDIWLAYAPVKNNPEDAAKVPKGNPYHSATSGEMAIYRANSLILQKAGVKVEEPVKQVLNGQEVEVWSRITWKPKWGMIFSDIKKKVSGNCEVSQRSTMAIKGRNVFIKDLSLDGALIVDSIDDAEVKLGGLINNGWTMESVDYKDTSVPEEIRIRGFRFNKVEQLEKKLTQPGKFSVED
modifications: aqueous solution; Arabidopsis
With B4, the “activity to produce uridine diphosphate-N-acetylglucosamine” value in data set [4] is given as 0.1 U/mL. Moreover, the “activity to produce uridine diphosphate-glucuronic acid” value in data set [5] came out at 5 U/μL.
